The target in this experiment is human CD3 (human, UniProt P07766 23-207; P04234 22-171). Briefly: flow cytometry, parental monospecific anti-CD3 on Jurkat cells; antibody concentration not given. (Flow cytometry measures light scatter and fluorescence of single cells or particles in a stream.)

Positions count from the first letter of the chain named.

Sequence of human CD3 (P07766 23-207, one chain of several): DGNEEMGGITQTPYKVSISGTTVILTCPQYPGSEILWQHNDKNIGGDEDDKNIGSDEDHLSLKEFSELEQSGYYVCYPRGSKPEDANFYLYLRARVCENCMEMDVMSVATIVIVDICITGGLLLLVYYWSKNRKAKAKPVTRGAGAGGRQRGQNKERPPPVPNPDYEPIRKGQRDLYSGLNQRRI

B1: SEQ ID NO 10 (antibody, IgG1, V domains shown)
VH: EVQLVESGGGLVQPGRSLRLSCAASGFTFDNYAMHWVRQAPGKGLEWVSGISWNSGSIGYADSVKGRFTISRDNAKNSLYLQMNSLRAEDTALYYCAKDSRGYGDYSRGGAYWGQGTLVTVSS
VL: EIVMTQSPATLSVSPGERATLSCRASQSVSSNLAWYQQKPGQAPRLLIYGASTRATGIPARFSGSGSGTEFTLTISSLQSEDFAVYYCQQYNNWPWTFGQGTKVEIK
notes: also called FlicAb
As for B1, the “Jurkat cell bind (MFI)” value was 30.5 MFI.

B2: SEQ ID NO 6 (antibody, IgG1, V domains shown)
VH: B1 VH with D30A, G59D
VL: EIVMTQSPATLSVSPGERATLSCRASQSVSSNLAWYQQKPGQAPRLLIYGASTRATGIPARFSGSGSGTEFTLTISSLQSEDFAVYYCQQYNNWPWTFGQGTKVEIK
notes: also called FlicAb
As for B2, the “Jurkat cell bind (MFI)” value came to 32.7 MFI.

B3: SEQ ID NO 1 (antibody, IgG1, V domains shown)
VH: B1 VH with N31D, S107R, R108L
VL: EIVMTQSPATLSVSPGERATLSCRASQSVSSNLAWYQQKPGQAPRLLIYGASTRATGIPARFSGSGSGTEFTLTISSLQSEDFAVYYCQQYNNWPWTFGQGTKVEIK
notes: also called FlicAb
For the molecule B3, the “Jurkat cell bind (MFI)” value came out at 6.1 MFI.

B4: SEQ ID NO 7 (antibody, IgG1, V domains shown)
VH: B1 VH with D30N, A88G
VL: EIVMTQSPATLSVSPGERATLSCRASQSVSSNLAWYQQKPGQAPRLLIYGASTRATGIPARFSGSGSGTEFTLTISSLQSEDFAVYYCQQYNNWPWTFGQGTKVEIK
notes: also called FlicAb
B4: the “Jurkat cell bind (MFI)” value is 32.4 MFI.

B5: SEQ ID NO 13 (antibody, IgG1, V domains shown)
VH: B1 VH with D30H, R108L
VL: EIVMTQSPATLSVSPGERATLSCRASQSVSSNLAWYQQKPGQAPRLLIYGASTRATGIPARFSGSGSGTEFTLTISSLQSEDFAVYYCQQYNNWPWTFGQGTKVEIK
notes: also called FlicAb
In the case of B5, the “Jurkat cell bind (MFI)” value is 21.4 MFI.

Values taken from patent US20200048348A1 (TENEOBIO, published 2020).
